Source: PMC4609183 (The EMBO Journal, 2015)

B1: parkin Ubl domain (domain or fragment, human, UniProt O60260 1-76, looked up)
chain: MIVFVRFNSSHGFPVEVDSDTSIFQLKEVVAKRQGVPADQLRVIFAGKELRNDWTVQNCDLDQQSIVHIVQRPWRK
B2: R0RBR parkin (residues 141–465, lacking Ubl domain and linker) (domain or fragment, human, UniProt O60260 141-465, looked up)
chain: SIYNSFYVYCKGPCQRVQPGKLRVQCSTCRQATLTLTQGPSCWDDVLIPNRMSGECQSPHCPGTSAEFFFKCGAHPTSDKETSVALHLIATNSRNITCITCTDVRSPVLVFQCNSRHVICLDCFHLYCVTRLNDRQFVHDPQLGYSLPCVAGCPNSLIKELHHFRILGEEQYNRYQQYGAEECVLQMGGVLCPRPGCGAGLLPEPDQRKVTCEGGNGLGCGFAFCRECKEAYHEGECSAVFEASGTTTQAYRVDERAAEQARWEAASKETIKKTTKPCPRCHVPVEKNGGCMHMKCPQPQCRLEWCWNCGCEWNRVCMGDHWFDV

How the values were obtained:
Test in all cases: ITC; 50 μM R0RBR, full-length parkin or phosphoparkin titrated with Ub, Ubl or their variants; 25°C; 50 mM HEPES, 50 mM NaCl, 250 μM TCEP pH 7.5 or 50 mM HEPES, 150 mM NaCl, 0.5 mM TCEP pH 8.0; single-site model
Conditions in all cases: both partners purified
[1] = biological target: B2
ubiquitin = ubiquitin (UniProt P0CG47 1-76)
phosphoubiquitin = phosphoubiquitin (UniProt P0CG47 1-76, phosphoserine at 65)

Row | Kd [1] [µM] | dH [1] [kJ/mol] | stoichiometry N [1] | Kd (ubiquitin) [µM] | Kd (phosphoubiquitin) [µM] | Binder
1 | 3.8 ± 1.3 | -44 ± 3 | 0.98 | – | – | B1
2 | – | – | – | 67 ± 1 | 0.016 ± 0.002 | B2
